PMC10682436

Assays:
[1] = molecular target: OVOL2 C120Y C120Y (Mus musculus) (UniProt Q8CIV7); assay: EMSA; details: 1 nM probe; 53 ng or 1.7 ug protein; severely impaired; EMSA: 1 nM 5'-biotin DNA probe, room temperature, 30 min (1 h for Fig. 7E), LightShift Chemiluminescent EMSA Kit; specific competitor 4.5 uM where used …
OVOL2 WT (Mus musculus) = OVOL2 WT (Mus musculus) (UniProt Q8CIV7); assay: EMSA; details: 1 nM probe; 53 ng protein; EMSA: 1 nM 5'-biotin DNA probe, room temperature, 30 min (1 h for Fig. 7E), LightShift Chemiluminescent EMSA Kit; specific competitor 4.5 uM where used …

Question: With “AACCGTTACC (double strand) [OVOL2 probe]” as the sequence, how does the binding signal (relative to WT = 128) [1] read?
Answer: 1

Question: And the binding signal (fold (WT:C120Y DNA binding ability)) (OVOL2 WT (Mus musculus))?
Answer: 128
